Results from PMC5404276 (ACS Chemical Biology, 2017).

Legend:
[1] = target: human mitochondrial cysteine desulfurase NFS1 (human); test: amino acid analysis + other: SAXS
[2] = target: [Acp]2:[ISD11]2:[NFS1]2 cysteine desulfurase complex (human | E. coli) (UniProt Q9HD34); test: SEC + other: amino acid analysis + other: SAXS
human ISD11-His6 (human) = human ISD11-His6 (human) (UniProt Q9HD34); test: amino acid analysis + other: SAXS
human ISD11-His6 = human ISD11-His6 (human, UniProt Q9HD34 1-91); test: amino acid analysis + other: SAXS
human ISD11-His6, sequence (Q9HD34 whole entry): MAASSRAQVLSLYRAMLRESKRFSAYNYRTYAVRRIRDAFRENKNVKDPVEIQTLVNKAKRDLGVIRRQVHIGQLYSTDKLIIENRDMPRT

human mitochondrial cysteine desulfurase NFS1 (human), sequence (Q9Y697 whole entry): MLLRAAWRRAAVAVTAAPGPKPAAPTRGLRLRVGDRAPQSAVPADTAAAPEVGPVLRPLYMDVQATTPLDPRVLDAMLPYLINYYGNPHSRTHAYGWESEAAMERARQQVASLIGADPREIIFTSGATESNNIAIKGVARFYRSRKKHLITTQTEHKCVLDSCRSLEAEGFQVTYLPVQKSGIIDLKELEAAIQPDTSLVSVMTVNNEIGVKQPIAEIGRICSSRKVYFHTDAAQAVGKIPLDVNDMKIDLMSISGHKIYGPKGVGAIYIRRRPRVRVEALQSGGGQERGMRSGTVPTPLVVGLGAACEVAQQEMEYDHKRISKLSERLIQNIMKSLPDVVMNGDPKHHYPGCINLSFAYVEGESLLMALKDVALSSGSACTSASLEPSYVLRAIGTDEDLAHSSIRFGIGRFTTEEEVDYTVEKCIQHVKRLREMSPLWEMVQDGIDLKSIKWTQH
[Acp]2:[ISD11]2:[NFS1]2 cysteine desulfurase complex (human | E. coli), sequence (Q9HD34 whole entry, looked up, one chain of several): as the sequence (Q9HD34 whole entry) above
human ISD11-His6 (human), sequence (Q9HD34 whole entry): as above

holo-form of E. coli acyl carrier protein (Acp) (from UniProt P0A6A8 1-78) (natural protein)
stoichiometry N [1]: 1

human frataxin FXN81-210 (mature form of frataxin) (from UniProt Q16595 81-210) (natural protein)
stoichiometry N [2]: 2

human mitochondrial cysteine desulfurase NFS1 (enzyme)
stoichiometry N (human ISD11-His6 (human)): 1

B1: holo-form of E. coli acyl carrier protein (Acp) (natural protein, UniProt P0A6A8 1-78, looked up)
chain: MSTIEERVKKIIGEQLGVKQEEVTNNASFVEDLGADSLDTVELVMALEEEFDTEIPDEEAEKITTVQAAIDYINGHQA
modifications: 4'-phosphopantetheine conjugated to S37
stoichiometry N (human ISD11-His6): 1
